Reference: PMC4423232

Key:
[1] = target: optimized version of the ectodomain of human Fcγ receptor I (hFcγRI, CD64), residues Gln16 to Val289, hexa-histidine tag at the C-terminus (human) (UniProt P12314); experiment: SPR; temperature dependence of KD, van't Hoff approximation; hFcγRI on the surface, Fc or IgG1 as analyte
[2] = target: optimized version of the ectodomain of human Fcγ receptor I (hFcγRI, CD64), residues Gln16 to Val289, hexa-histidine tag at the C-terminus (human) (UniProt P12314); experiment: SPR; method #1: Biacore T200, hFcγRI captured by its C-terminal hexa-histidine on a Ni-NTA chip (~550 RU for Fc, ~220 RU for IgG), Fc or IgG1 as analyte, PBS with 0.005% Tween-20, 25 °C, 1:1 Langmuir global fit, KD from the rate constants

dH (van't Hoff) [1]: -26.8 kcal/mol
Kd [2]: 4.2 nM
koff [2]: 0.00011 s⁻¹
kon [2]: 27000 M⁻¹ s⁻¹
Substance: Fc fragment of the humanized IgG1 monoclonal antibody rituximab (from UniProt P01857 107-328) (domain or fragment)
